Laboratory results: paper PMC3910112

Molecular target: fluorescein-labelled mouse EAG1 eag domain (FL-eag) (mouse) (UniProt Q60603)
Assay: fluorescence polarisation

- Kd: 13.2 µM
Substance: mouse EAG1 (mEAG1) CNBHD (residues 552-724) (from UniProt Q60603 552-724) (domain or fragment)
